The values below come from US20200354462A1.

In the test the target is human GnRH receptor expressed on the surface of OC-3-VGH cancer cells (human) (UniProt P30968). Kind of test: cell-based or functional assay.
UniProt P30968, sequence (P30968 whole entry): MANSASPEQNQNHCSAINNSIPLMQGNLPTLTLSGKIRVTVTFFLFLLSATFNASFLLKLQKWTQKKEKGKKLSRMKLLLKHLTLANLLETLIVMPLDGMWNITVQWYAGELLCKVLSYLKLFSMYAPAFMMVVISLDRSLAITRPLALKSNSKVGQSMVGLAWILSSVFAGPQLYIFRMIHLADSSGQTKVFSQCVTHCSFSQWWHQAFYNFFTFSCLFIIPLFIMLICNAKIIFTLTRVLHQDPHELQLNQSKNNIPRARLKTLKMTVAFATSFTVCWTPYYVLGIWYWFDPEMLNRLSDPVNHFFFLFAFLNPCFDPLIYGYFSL

Substance antide (peptide) yielded a GnRH gene expression in cancer cells of 50%.
